Experimental findings from patent US20250027068A1 (published 2025) are described below.

The target of this test is pooled human IgG (human IgG1, 2, 3 and 4) (human). The experiment in a line: cell-based or functional assay.
Also: test concentration or dose not given here.

B1: PRT-419 (enzyme)
chain: MTITSVWTKGVTPPTPEDFRYNNEDVLHAPYVANQGWYDITKTFDGKDNLLCGAATAGNMLHWWFDQNKEEIERYLKKHPEKQKIIFNNQELFDVKAAIDTKDSQTNSKLFNYFRDKAFPNLSARQLGVMPDLVLDMFINGYYLNLGKTQSTDVNRPYQDKDKRGGIFDAVFTRGDQTTLLTARHDLKNKGLNEISDLIKQELTEGKALALSHTYANVRINHVINLWGADFDAEGNLIAIYVTDSDANASIGMKKYFVGVNANGKVAISAKKIEGDNIGAQVLGLFTLSTGQDQWQKLS
In the case of B1, the “Enzyme Activity Endpoint Assay: Fab′2” value was 528 ng/µL, the “Enzyme Activity Endpoint Assay: Fc” value turned out to be 298 ng/µL, the “Enzyme Activity Endpoint Assay: IgG” value amounted to 183 ng/µL and the “Enzyme Activity Endpoint Assay: scIgG” value worked out at 0 ng/µL.

B2: PRT-427 (enzyme)
chain: MTITSVWTKGVTPPTPEDFRYNNEDVLHAPYVANQGWYDITKTFDGKDNLLCGAATAGNMLHWWFDQNKEEIERYLKKHPEKQKIIFNNQELFDVKAAIDTKDSQTNSKLFNYFRDKAFPNLSARQLGVMPDLVLDMFINGYYLNLGKTQSTDVNRPYQDKDKRGGIFDAVFTRGVQTTLLTARHDLKNKGLNEISDLIKQELTEGKALALSHTYANVRINHVINLWGADFDAEGNLIAIYVTDSDANASIGMKKYFVGVNANGKVAISAKKIEGDNIGAQVLGLFTLSTGQDIWQKLS
For the molecule B2, the “Enzyme Activity Endpoint Assay: Fab′2” value came to 537 ng/µL, the “Enzyme Activity Endpoint Assay: Fc” value amounted to 352 ng/µL, the “Enzyme Activity Endpoint Assay: IgG” value stood at 135 ng/µL and the “Enzyme Activity Endpoint Assay: scIgG” value was 139 ng/µL.

B3: PRT-380 (enzyme)
chain: MVTSVWTKGVTPPTNFTYGEDVLHAPYVANQGWYDITKTFNGKDDLLCGAATAGNMLHWWFDQNKEQIENYLKKHPEKQKINFNGEQMFDVKEAIDTKDSQLDSKLFEYFKEKAFPYLSTKHLGVFPDHVIDMFINGYRLSLTNHGPTPVKRGSKDPRGGIFDAVFTRGDQSKLLTNRHDFKEKTLKEISDLIKQELTEGKALGISHTYANARINHVINLWGADFDAEGNLEAIYVTDSDSNASIGMKKYFVGVNSNGKVAISAKEIEEDNIGAQVLGLFTLSTGQDIWNQTN
For the molecule B3, the “Enzyme Activity Endpoint Assay: Fab′2” value is 66 ng/µL, the “Enzyme Activity Endpoint Assay: Fc” value was 258 ng/µL, the “Enzyme Activity Endpoint Assay: IgG” value amounted to 219 ng/µL and the “Enzyme Activity Endpoint Assay: scIgG” value turned out to be 702 ng/µL.

B4: PRT-388 (enzyme)
chain: MVTSVWTKGVTPPTNFTYGEDVLHAPYVANQGWYDITKTFNGKDTLLCGAATAGNMLHWWFDQNKEQIENYLKKHPEKQKINFNGEQMFDVKEAIDTKDSQLDSKLFEYFKEKAFPYLSTKHLGVFPDHVIDMFINGYRLSLTNHGPTPVKRGSKDPRGGIFDAVFTRGDQSKLLTNRHDFKEKTLKEISDLIKQELTEGKALGISHTYANVRINHVINLWGADFDAEGNLEAIYVTDSDSNASIGMKKYFVGVNSNGKVAISAKEIEEDNIGAQVLGLFTLSTGQDIWNQTN
For B4, the “Enzyme Activity Endpoint Assay: Fab′2” value amounted to 481 ng/µL, the “Enzyme Activity Endpoint Assay: Fc” value was 338 ng/µL, the “Enzyme Activity Endpoint Assay: IgG” value stood at 34 ng/µL and the “Enzyme Activity Endpoint Assay: scIgG” value was 222 ng/µL.

B5: PRT-403 (enzyme)
chain: MVTSVWTKGVTPPADFTQGEDVFHAPYVANQGWYDITKTFNGKDDLLCGAATAGNMLHWWFDQNKEYIEAYLKKHPEKQKIMFGDQELLDVRKAINTKGSQKNSELFNYFRDKAFPNLSARRLGVMPDLVLDMFINGYYLNVTKTQTTDVNRTYQEKDKRGGIFDAVFTRGDQSKLLTSRHDFKEKGLKEISDLIKQELTEGKALGLSHTYANVRISHVINLWGADFDSDGNLKAIYVTDSDSNASIGMKKYFVGVNSAGKVAISAKEIKEDNIGAQVLGLFTLSTGQDIWNQTN
As to B5, the “Enzyme Activity Endpoint Assay: Fab′2” value came to 569 ng/µL, the “Enzyme Activity Endpoint Assay: Fc” value is 332 ng/µL, the “Enzyme Activity Endpoint Assay: IgG” value amounted to 166 ng/µL and the “Enzyme Activity Endpoint Assay: scIgG” value was found to be 40 ng/µL.

B6: PRT-396 (enzyme)
chain: MVTSVWTKGVTPPADFTQGEDVFHAPYVANQGWYDITKTFNGKDDLLCGAATAGNMLHWWFDQNKEYIEAYLKKHPEKQKIMFGDQELLDVRKAINTKGSQKNSELFNYFRDKAFPNLSARRLGVMPDLVLDMFINGYYLNVTKTQTTDVNRTYQEKDKRGGIFDAVFTRGDQSKLLTSRHDFKEKGLKEISDLIKQELTEGKALGLSHTTANVRINHVINLWGADFDSDGNLKAIYVTDSDSNASIGMKKYFVGVNSAGKVAISAKEIKEDNIGAQVLGLFTLSTGQDIWNQTN
On to B6, for which the “Enzyme Activity Endpoint Assay: Fab′2” value was determined as 0 ng/µL, the “Enzyme Activity Endpoint Assay: Fc” value amounted to 92 ng/µL, the “Enzyme Activity Endpoint Assay: IgG” value came out at 1010 ng/µL and the “Enzyme Activity Endpoint Assay: scIgG” value was found to be 215 ng/µL.

B7: PRT-411 (enzyme)
chain: MVTSVWTKGVTPPADFTQGEDVFHAPYVANQGWYDITKTFNGKDDLLCGAATAGNMLHWWFDQNKEYIEAYLKKHPEKQKIMFGDQELLDVRKAINTKGSQKNSELFNYFRDKAFPNLSARRLGVMPDLVLDMFINGYYLNVTKTQTTDVNRTYQEKDKRGGIFDAVFTRGDQSKLLTSRHDFKEKGLKEISDLIKQELTEGKALGLSHTYANVRINHVINLWGADFDSDGNLKAIYVTDSDSRASIGMKKYFVGVNSAGKVAISAKEIKEDNIGAQVLGLFTLSTGQDIWNQTN
For B7, the “Enzyme Activity Endpoint Assay: Fab′2” value turned out to be 519 ng/µL, the “Enzyme Activity Endpoint Assay: Fc” value worked out at 341 ng/µL, the “Enzyme Activity Endpoint Assay: IgG” value was 90 ng/µL and the “Enzyme Activity Endpoint Assay: scIgG” value came to 155 ng/µL.
